Laboratory results reported in US20240272145A1.

Key:
[1] = target: citrullinated histone H2A and H4 present in pre-NETs (A23187-stimulated human neutrophils) (human) (UniProt P0C0S8); experiment: cell-based or functional assay
[2] = target: citrullinated histone H2A and H4 present in pre-NETs (A23187-stimulated human neutrophils) (human) (UniProt P0C0S8); experiment: flow cytometry on fixed and permeabilized leukocytes of A23187-stimulated whole blood; detection with goat-anti-human IgG-Alexa Fluor 488
[3] = target: citrullinated histone H2A and H4 present in pre-NETs (A23187-stimulated human neutrophils) (human) (UniProt P0C0S8); experiment: flow cytometry on fixed and permeabilized leukocytes of A23187-stimulated whole blood; detection with goat-anti-human IgG-Alexa Fluor 488; negative control, same value as without antibody

Substance | NET-inhibitory effect compared to No Ab at 210 min (live imaging fluorescence microscopy, A23187-stimulated neutrophils) [1] [%] | NETs after 210 min (percentage of neutrophils at t=0) [1] [%] | % pre-NETs (FITC+ of CD66b+ leukocytes, indicating antibody binding) [2] [%] | % pre-NETs (FITC+ of CD66b+ leukocytes, indicating antibody binding) [3] [%]
CIT-013 (antibody) | 66 | 8 | 15 | –
isotype control antibody | – | – | – | 5
